Laboratory results taken from patent publication US20230137562A1, “TAU AGGREGATION INHIBITORS” (priority 2017, published 2023).
“And” between values parts separate entries of the source, which are not always exact repeats. Equal values may be shown once.

How the values were obtained:
[1] = biological target: His-Tau40P301L Tau (UniProt P10636-8 1-441); test: cell-based or functional assay
[2] = biological target: T1, Ac-VQIINK-NH2; test: cell-based or functional assay
T1 peptide: Ac-VQIINK-NH2

Sequence of His-Tau40P301L Tau (P10636 other isoform, or with tags, fused parts or gaps limits assumed): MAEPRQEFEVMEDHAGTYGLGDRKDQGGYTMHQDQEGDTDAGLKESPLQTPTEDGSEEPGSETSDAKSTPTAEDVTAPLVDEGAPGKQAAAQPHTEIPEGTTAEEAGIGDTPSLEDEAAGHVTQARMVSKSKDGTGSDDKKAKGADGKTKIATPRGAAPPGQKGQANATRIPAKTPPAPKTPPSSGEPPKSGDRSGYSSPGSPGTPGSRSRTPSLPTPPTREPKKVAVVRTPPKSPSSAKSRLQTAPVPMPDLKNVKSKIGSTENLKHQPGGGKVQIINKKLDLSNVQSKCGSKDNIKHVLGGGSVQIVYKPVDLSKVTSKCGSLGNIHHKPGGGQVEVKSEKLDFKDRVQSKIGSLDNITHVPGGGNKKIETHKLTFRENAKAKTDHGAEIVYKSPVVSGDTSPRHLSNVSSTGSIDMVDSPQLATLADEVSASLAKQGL

Row | Binder | IC50 (µM), Tau40 assay (ThT) [1] | IC50 (µM), VQIINK Inhibition (ThT) [2]
1 | WRIRIRH | 4.44 µM | 11.6 µM
2 | ARIWIRYW | 4.08 µM | 3.14 µM
3 | WRIWIR | 7.22 µM | 11.8 µM
4 | ARIRIRW | 4.19 µM | 2.72 µM
5 | WYRIWIRW | 0.96 µM and 1 µM and 1.73 µM | 2.02 µM and 3.69 µM
6 | RIRIAIW | 4.14 µM | 1.8 µM
7 | RIWIRIW | 6.47 µM | 3.17 µM
8 | RIRLEWW | 9.8 µM | 3.89 µM
9 | WWIRIRYWK | 1.02 µM and 1.12 µM | 1.89 µM
10 | IRLWIW | 9.6 µM | 1.83 µM
11 | IWIRYW | 4.05 µM | 5.43 µM
12 | WRIRARW | 8.01 µM | 4.07 µM
13 | IRIWIW | 6.77 µM | 2.94 µM
14 | RIRLWIW | 7.07 µM | 4.63 µM
15 | WRIRIRF | 10.8 µM | 42.8 µM
16 | RIRIWVW | 7.07 µM | 2.3 µM
17 | WRARARW | 12 µM | 29.1 µM
18 | RIRIFIW | 3.94 µM | 1.57 µM
19 | RIRIRW | 10.9 µM | 10.8 µM

Row | Binder | IC50 (µM), Tau40 assay (ThT) [1] | IC50 (µM), VQIINK Inhibition (ThT) [2]
20 | WKIHIWWR | 5.75 µM | 2.01 µM
21 | LKIHIRHW | 3.79 µM | 3.05 µM
22 | IRLWVW | 8.77 µM | 1.63 µM
23 | IWLRLW | 9.93 µM | 2.29 µM
24 | RIHIFFW | 4.4 µM | 1.95 µM
25 | RIRVWIF | 6.53 µM and 6.89 µM | 2.8 µM
26 | FRIRIKHY | 9.45 µM | 3.61 µM
27 | IWIRLW | 11.4 µM | 2.12 µM
28 | ERIWIRYW | 5.33 µM | 6.19 µM
29 | WRIWIRLW | 7.32 µM | 3.97 µM
30 | KWWIRIRYW | 4.62 µM and 7.02 µM | 1.8 µM
31 | KIRLYWW | 5.73 µM | 2.86 µM
32 | WRIRIAW | 4.72 µM | 6 µM
33 | RIRIRWW | 4.57 µM | 10.2 µM
34 | RIWIRVW | 6.36 µM | 2.14 µM
35 | WRIRIRA | 8.31 µM | 8.28 µM
36 | FRIWIRYF | 4 µM | 4.64 µM
37 | WRIRLRW | 0.9 µM and 0.97 µM | 4.04 µM
